Laboratory results published in patent US20230203190A1.
“And” between values parts separate entries of the source, which are not always exact repeats. Identical values can stand only once.

What was measured:
[1] = target: human colorectal and pancreatic carcinoma-associated antigens (CPAA) (human); experiment: flow cytometry, OVCAR-3 ovarian tumor cells, control antibody
[2] = target: human colorectal and pancreatic carcinoma-associated antigens (CPAA) (human); experiment: flow cytometry, LS174T colorectal tumor cells, control antibody
[3] = target: human colorectal and pancreatic carcinoma-associated antigens (CPAA) (human); experiment: flow cytometry, MCF-7 breast tumor cells, control antibody
[4] = target: human colorectal and pancreatic carcinoma-associated antigens (CPAA) (human); experiment: flow cytometry, CFPAC-1 pancreatic tumor cells, control antibody
[5] = target: human colorectal and pancreatic carcinoma-associated antigens (CPAA) (human); experiment: flow cytometry, GEO colorectal tumor cells, control antibody
[6] = target: human colorectal and pancreatic carcinoma-associated antigens (CPAA) (human); experiment: flow cytometry, CFPAC-1 pancreatic tumor cells, 2 ug NPC-1C per 100,000 cells
[7] = target: human colorectal and pancreatic carcinoma-associated antigens (CPAA) (human); experiment: flow cytometry, PC-3 prostate tumor cells (type reported as not bound), 2 ug NPC-1C per 100,000 cells
[8] = target: human colorectal and pancreatic carcinoma-associated antigens (CPAA) (human); experiment: flow cytometry, Colo-205 colorectal tumor cells, 2 ug NPC-1C per 100,000 cells
[9] = target: human colorectal and pancreatic carcinoma-associated antigens (CPAA) (human); experiment: flow cytometry, SW756 squamous tumor cells (type reported as not bound), 2 ug NPC-1C per 100,000 cells
[10] = target: human colorectal and pancreatic carcinoma-associated antigens (CPAA) (human); experiment: flow cytometry, AsPC-1 pancreatic tumor cells, 2 ug NPC-1C per 100,000 cells
[11] = target: human colorectal and pancreatic carcinoma-associated antigens (CPAA) (human); experiment: flow cytometry, SW1116 colorectal tumor cells, 2 ug NPC-1C per 100,000 cells
[12] = target: human colorectal and pancreatic carcinoma-associated antigens (CPAA) (human); experiment: flow cytometry, Panc-1 pancreatic tumor cells, 2 ug NPC-1C per 100,000 cells
[13] = target: human colorectal and pancreatic carcinoma-associated antigens (CPAA) (human); experiment: flow cytometry, SW1463 colorectal tumor cells, 2 ug NPC-1C per 100,000 cells
[14] = target: human colorectal and pancreatic carcinoma-associated antigens (CPAA) (human); experiment: flow cytometry, LS174T colorectal tumor cells, 2 ug NPC-1C per 100,000 cells
[15] = target: human colorectal and pancreatic carcinoma-associated antigens (CPAA) (human); experiment: flow cytometry, HTB-35 squamous tumor cells (type reported as not bound), 2 ug NPC-1C per 100,000 cells
[16] = target: human colorectal and pancreatic carcinoma-associated antigens (CPAA) (human); experiment: flow cytometry, HT-29 colorectal tumor cells, 2 ug NPC-1C per 100,000 cells
[17] = target: human colorectal and pancreatic carcinoma-associated antigens (CPAA) (human); experiment: flow cytometry, H226 squamous tumor cells (type reported as not bound), 2 ug NPC-1C per 100,000 cells
[18] = target: human colorectal and pancreatic carcinoma-associated antigens (CPAA) (human); experiment: flow cytometry, DU145 prostate tumor cells (type reported as not bound), 2 ug NPC-1C per 100,000 cells
[19] = target: human colorectal and pancreatic carcinoma-associated antigens (CPAA) (human); experiment: flow cytometry, SW480 colorectal tumor cells, 2 ug NPC-1C per 100,000 cells
[20] = target: human colorectal and pancreatic carcinoma-associated antigens (CPAA) (human); experiment: flow cytometry, H520 squamous tumor cells (type reported as not bound), 2 ug NPC-1C per 100,000 cells
[21] = target: human colorectal and pancreatic carcinoma-associated antigens (CPAA) (human); experiment: flow cytometry, SW620 colorectal tumor cells, 2 ug NPC-1C per 100,000 cells
[22] = target: human colorectal and pancreatic carcinoma-associated antigens (CPAA) (human); experiment: flow cytometry, MCF-7 breast tumor cells (line reported as not bound), 2.5 ug NPC-1 per 100,000 cells
[23] = target: human colorectal and pancreatic carcinoma-associated antigens (CPAA) (human); experiment: flow cytometry, CFPAC-1 pancreatic tumor cells, 2.5 ug NPC-1 per 100,000 cells
[24] = target: human colorectal and pancreatic carcinoma-associated antigens (CPAA) (human); experiment: flow cytometry, GEO colorectal tumor cells, 2.5 ug NPC-1 per 100,000 cells
[25] = target: human colorectal and pancreatic carcinoma-associated antigens (CPAA) (human); experiment: flow cytometry, LS174T colorectal tumor cells, 2.5 ug NPC-1 per 100,000 cells
[26] = target: human colorectal and pancreatic carcinoma-associated antigens (CPAA) (human); experiment: flow cytometry, OVCAR-3 ovarian tumor cells (line reported as not bound), 2.5 ug NPC-1 per 100,000 cells

Molecule: Isotype Control (antibody)
- % Cell Staining [1]: 0.19%
- % Cell Staining [2]: 0.93%
- % Cell Staining [3]: 0.94%
- % Cell Staining [4]: 0.44%
- % Cell Staining [5]: 0.78%

B1: NPC-1C chimeric antibody (antibody, mouse IgG1, kappa, V domains shown)
VH: QVQLKESGPDLVAPSQSLSITCIVSGFSLSKFGVNWVRQPPGKGLEWLGVIWGDGSTSYNSGLISRLSIKENSKSQVFLKLNSLQADDTATYYCVKPGGDYWGHGTSVTVSS
VL: QVVLTQSPVIMSASPGEKVTMTCSASSSISYMYWYQQKPGTSPRWIYDTSKLASGVPARFSGGSGTSYSLTISNMEAGDAAYYCHQRDSYPWTFGGGTNLIKRA
- % Cell Staining [6]: 11.2% and 10.6%
- mfi (mean fluorescence intensity) [6]: 16 and 15
- % Cell Staining [7]: 1.34% and 1.52%
- mfi (mean fluorescence intensity) [7]: 17 and 28
- % Cell Staining [8]: 2.26% and 1.44%
- mfi (mean fluorescence intensity) [8]: 154 and 67
- % Cell Staining [9]: 0.75% and 2.14%
- mfi (mean fluorescence intensity) [9]: 186 and 178
- % Cell Staining [10]: 0.43% and 0.35%
- mfi (mean fluorescence intensity) [10]: 33 and 34
- % Cell Staining [11]: 1.12% and 2.37%
- mfi (mean fluorescence intensity) [11]: 97 and 174
- % Cell Staining [12]: 0.75% and 0.41%
- mfi (mean fluorescence intensity) [12]: 69 and 31
- % Cell Staining [13]: 3.72% and 4.29%
- mfi (mean fluorescence intensity) [13]: 410 and 399
- % Cell Staining [14]: 11.6% and 11.2%
- mfi (mean fluorescence intensity) [14]: 43 and 47
- % Cell Staining [15]: 4.83% and 3.85%
- mfi (mean fluorescence intensity) [15]: 97 and 123
- % Cell Staining [16]: 1.3% and 1.09%
- mfi (mean fluorescence intensity) [16]: 55 and 34
- % Cell Staining [17]: 0.49% and 0.4%
- mfi (mean fluorescence intensity) [17]: 32
- % Cell Staining [18]: 0.24% and 0.14%
- % Cell Staining [19]: 1.41% and 1.34%
- mfi (mean fluorescence intensity) [19]: 44 and 64
- % Cell Staining [20]: 1.66% and 0.93%
- mfi (mean fluorescence intensity) [20]: 129 and 173
- % Cell Staining [21]: 0.24% and 0.85%
- mfi (mean fluorescence intensity) [21]: 184 and 74

B2: NPC-1 monoclonal antibody (antibody, mouse IgG1, kappa, V domains shown)
VH: QVQLKESGPDLVAPSQSLSITCIVSGFSLSKFGVNWVRQPPGKGLEWLGVIWGDGSTSYNSGLISRLSIKENSKSQVFLKLNSLQADDTATYYCVKPGGDYWGHGTSVTVSS
VL: QVVLTQSPVIMSASPGEKVTMTCSASSSISYMYWYQQKPGTSPRWIYDTSKLASGVPARFSGGSGTSYSLTISNMEAGDAAYYCHQRDSYPWTFGGGTNLIKRA
- % Cell Staining [22]: 0.19%
- % Cell Staining [23]: 54.6%
- % Cell Staining [24]: 86.9%
- % Cell Staining [25]: 57%
- % Cell Staining [26]: 0.19%
